Results published in patent publication US8829175B2, “Nucleic acids encoding polyvalent protein complexes” (IBC Pharmaceuticals, Inc., priority 2003, dated 2014).

What was measured:
[1] = system: human colonic tumor (GW-39) xenograft; assay: Imaging of mice pre-targeted with hBS14 followed by 99mTc-IMP-245; format: in vivo, nude mice
Description: The experiment used 3 groups of 15 mice, each of which was necropsied, and 1 group of 5 mice that was imaged. Three groups of mice were administered 6 μCi ^125I-hBS14 (40 μg, 5.0×10^−10 moles). In the last group (imaging group), 3 mice received unlabeled hBS14. The amount of ^99mTc-IMP-245 administered to all the mice was ˜40 μCi (92 ng, 5.0×10^−11 moles) for a bispecific:peptide ratio of 10:1.
Animals 1 & 2 were given peptide only, while animals 3, 4, & 5 were administered hBS14 followed by peptide.

[2] = BIAcore binding to HSG immobilized on a sensorchip
From the text: If the W12 binding is allowed to approach saturation, the stoichiometry of the binding can be determined. The additional increase in RU resulting from W12 binding was compared to the initial RU increase of the hBS14 upon binding to the HSG-sensorchip. As each increase in RU level is directly proportional to the mass bound, the WI2:bsAb molar binding ratio can be calculated using the formula (RUWI2/RUhBS14)×(MWhBS14/MWWI2). hBS14 was designed to be bivalent for CEA (and monovalent for HSG) and as such should bind W12 (also bivalent) with a 1:1 molar ratio. […] When equal concentrations of hBS14 were bound to an HSG-sensorchip, BIAcore sensorgrams are indistinguishable between lots derived from either SP2/0 or YB2/0 cells (FIG. 17).

CEA = target: T1, CEA (Homo sapiens, UniProt P06731); assay: SE-HPLC analysis of in vitro immunoreactivity with CEA; format: binding; conditions: 125I-labeled protein; complexes bound to either one or two CEAs
T1 sequence (P06731 35-676): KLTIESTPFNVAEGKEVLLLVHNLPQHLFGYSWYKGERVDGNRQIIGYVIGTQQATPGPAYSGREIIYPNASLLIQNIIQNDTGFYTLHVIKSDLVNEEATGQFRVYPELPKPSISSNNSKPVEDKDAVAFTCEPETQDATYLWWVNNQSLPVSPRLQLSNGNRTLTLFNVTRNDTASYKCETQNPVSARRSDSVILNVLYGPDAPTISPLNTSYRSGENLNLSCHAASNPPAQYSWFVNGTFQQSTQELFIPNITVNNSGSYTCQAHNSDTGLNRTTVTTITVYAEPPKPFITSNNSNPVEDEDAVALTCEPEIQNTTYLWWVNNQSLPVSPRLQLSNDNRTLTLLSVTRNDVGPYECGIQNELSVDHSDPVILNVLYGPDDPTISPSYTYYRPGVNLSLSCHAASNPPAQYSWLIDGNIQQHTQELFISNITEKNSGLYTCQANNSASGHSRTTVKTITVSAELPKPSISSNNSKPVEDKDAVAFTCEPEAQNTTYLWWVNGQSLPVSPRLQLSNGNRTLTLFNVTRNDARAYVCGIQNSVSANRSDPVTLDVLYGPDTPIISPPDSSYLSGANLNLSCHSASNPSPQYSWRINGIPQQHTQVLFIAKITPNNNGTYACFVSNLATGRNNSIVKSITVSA
From the text: Confirmation that BS14HP has the ability to bind CEA bivalently was provided by SE-HPLC analysis of in vitro immunoreactivity. […] (FIG. 6B).

binding to immobilized HSG [2]: bound tightly
B1: hBS14: bispecific trivalent heterodimer (hMN-14×hMN-14×679) expressed in myeloma cells, SEQ ID NO:11 and 12 (antibody)
heavy: MEVQLVESGGDLVKPGGSLKLSCAASGFTFSIYTMSWLRQTPGKGLEWVATLSGDGDDIYYPDSVKGRFTISRDNAKNSLYLQMNSLRAEDTALYYCARVRLGDWDFDVWGQGTTVSVSSGGGGSDIQLTQSPSSLSASVGDRVTITCKASQDVGTSVAWYQQKPGKAPKLLIYWTSTRHTGVPSRFSGSGSGTDFTFTISSLQPEDIATYYCQQYSLYRSFGQGTKVEIKRLEGGGSEVQLVESGGGVVQPGRSLRLSCSASGFDFTTYWMSWVRQAPGKGLEWIGEIHPDSSTINYAPSLKDRFTISRDNAKNTLFLQMDSLRPEDTGVYFCASLYFGFPWFAYWGQGTPVTVSVDHHHHHH
light: MDIQLTQSPSSLSASVGDRVTITCKASQDVGTSVAWYQQKPGKAPKLLIYWTSTRHTGVPSRFSGSGSGTDFTFTISSLQPEDIATYYCQQYSLYRSFGQGTKVEIKRGGGQFMEVQLVESGGGVVQPGRSLRLSCSASGFDFTTYWMSWVRQAPGKGLEWIGEIHPDSSTINYAPSLKDRFTISRDNAKNTLFLQMDSLRPEDTGVYFCASLYFGFPWFAYWGQGTPVTVSGGGGSDIVMTQSPSSLAVSPGERVTLTCKSSQSLFNSRTRKNYLGWYQQKPGQSPKLLIYWASTRESGVPDRFSGSGSGTDFTLTINSLQAEDVAVYYCTQVYYLCTFGAGTKLELKRLDHHHHHH
tumor visibility in images ([1]; 1 hr post-peptide administration, hBS14 48-hr clearance then 99mTc-IMP-245): clearly visible | location of signal in images ([1]; 24 hrs post-peptide administration, imaged for 20 minutes): only signal detected was located in the tumors | SE-HPLC peak shifts on mixing with increasing amounts of CEA (CEA): two distinct peak shifts
